Laboratory results taken from patent US20220290139A1, “METHODS AND COMPOSITIONS FOR GENE SPECIFIC DEMETHYLATION AND ACTIVATION” (NATIONAL UNIVERSITY OF SINGAPORE, priority 2019, published 2022).
“Also recorded” adds a separate entry of the source.

Columns and labels:
P16 promoter = experiment: p16 methylation (MSP/COBRA) after transient transfection; type: cell-based, human; details: SNU-398, transient co-transfection with dCas9, guide G2, 72 hours
Text: (§1) In this example, a modified CRISPR/dCAS9 system for gene activation and demethylation was developed and tested with P16. The DiR localized in CEBPA locus (ecCEBPA) is repurposed to other specific gene target(s) for demethylation and reactivation. The RNA stem-loops (R2 and R5), interacting with DNMT1(1), were fused to the tetra- and stem-loop 2 in a single guide RNA (sgRNA) scaffold to obtain a modified sgRNA (MsgRNA, sgDiR in FIG. 1, also referred to as MsgDiR6 in Example 3 below). The hepatocellular carcinoma (HCC) cell line SNU-398, in which P16 is silenced by promoter methylation, was transiently transfected with dCas9 plasmid and one MsgRNA (using guide G2: […] (SEQ ID NO: 29), MsgRNA with guide G2 is shown as G2sgDiR in FIG. 1, as targeting portion) targeting the template strand of P16 promoter.
(§2) SNU-398 cells were seeded at a density of […] in 6-well plates 24 hours before transfection employing jetPRIME transfection reagent (Polyplus Transfection) as described by the manufacturer. 2 μg mix of sgRNA/MsgDiR and dCas9 plasmid(s) (sgRNA/MsgDiR: dCas9 molar ratio 1:1) were transfected into each well of cells. The culture medium was changed 12 hours after transfection. Alternatively, the Neon™ Transfection System (Thermo Fisher) was used for cell electroporation according to the manufacturer's instructions. The same plasmid amount and ratios were used in the Neon as in the jetPRIME transfection. The parameters used for the highest SNU-398 transfection efficiency were 0.7 to 1.5 million cells in 100 μl reagent, voltage 1550 V, width 35 ms and 1 pulse. The culture medium was changed 24 hours after transfection.
The methylation profiles of the p16 gene locus or the whole genome were assessed by bisulfite-conversion based assays. For DNA bisulfite conversion, 1.6-1.8 μg of genomic DNA of each sample was converted by the EpiTect Bisulfite Kit (Qiagen) following the manufacturer's instructions.
For Methylation-Specific PCR (MSP), both methylation specific primers and unmethylation specific primers of p16 were used for the PCR of the same bisulfite converted sample (the transient transfection samples in the sgRNA and MsgDiR1-8 screening assay). […] 7 min, 4° C. hold. […] 7 min, 4° C. hold. […] 7 min, 4° C. hold.

P16 = experiment: p16 mRNA qRT-PCR after transient transfection of sgRNA/MsgDiR with or without dCas9; type: cell-based, human; details: SNU-398, 72 hours; for P16 mRNA expression (qRT-PCR): transient co-transfection with dCas9, guide G2
Text: as §1
This study transiently transfected dCas9 plasmid together with one MsgRNA plasmid (G2sgDiR) to SNU398 cells, culturing three days without selection for the positively transfected cells. Guide G2 targets one site in the template strand (also known as antisense strand) of P16 promoter; and was initially chosen for two reasons: 1) the sequence is one of the three guides used in a P16 gene study (3), and 2) G2 targets the P16 promoter region, the methylation and demethylation of which has been considered as an important factor for gene regulation.
All measurements were performed in triplicate.
as §2

Molecule	P16 DNA methylation / demethylation (P16 promoter)	P16 mRNA expression (qRT-PCR) (P16)	P16 mRNA expression (qRT-PCR) (P16; listed as sgDiR (G2))	p16 activation in absence of dCas9 (P16; transient transfection without dCas9)	P16 DNA methylation / demethylation (P16 promoter; listed as CRISPR-R2R5 system)	P16 mRNA expression (qRT-PCR) (P16; listed as CRISPR-R2R5 system)
MsgDiR7: R2-R2 modified sgRNA, SEQ ID NO: 54 (nucleic acid, MsgDiR7 R2-R2 Sequence; (1)..(19) n is a, c, g, or u) guide: NNNNNNNNNNNNNNNNNNNGUUUGAGAGCUACCCGGGACGCGGGUCCGGGACAGUAGCAAGUUCAAAUAAGGCUAGUCCGUUAUCAACUUCCCGGGACGCGGGUCCGGGACAGAAGUGGCACCGAGUCGGUGCUUUUUU	not effective					
MsgDiR6: R2-R5 modified sgRNA scaffold (CRISPR-DiR), SEQ ID NO: 53; tested with guide G2 (nucleic acid, MsgDiR6 R2-R5 Sequence; (1)..(19) n is a, c, g, or u, tested with guide G2) guide: NNNNNNNNNNNNNNNNNNNGUUUGAGAGCUACCCGGGACGCGGGUCCGGGACAGUAGCAAGUUCAAAUAAGGCUAGUCCGUUAUCAACUUCUGAGGCCUUGGCGAGGCUUCUAAGUGGCACCGAGUCGGUGCUUUUUU	induces P16 demethylation	moderate activation of p16; also recorded: moderate gene activation	moderate activation	no effects		
MsgRNA: Example 1 modified sgRNA, guide G2, R2 in tetra-loop and R5 in stem loop 2, SEQ ID NO: 15; used with dCas9 (nucleic acid, MsgRNA, used with dCas9) guide: GCACUCAAACACGCCUUUGCGUUUUAGAGCUACCCGGGACGCGGGUCCGGGACAGUAGCAAGUUAAAAUAAGGCUAGUCCGUUAUCAACUUCUGAGGCCUUGGCGAGGCUUCUAAGUGGCACCGAGUCGGUGCUUUUUU	loss of DNA methylation	two-fold increase			demethylation	moderate gene activation
